This note sets out measurements from IntAct's records for PubMed 21236256.

The labels stand for the following.
B1: Actin filament-associated protein 1 (Gallus gallus (Chicken)), Q90738 (parent)
chain: MEELIVELRLFLELLDHEYLTSTVREKKAVITNILLRIQSSKGFEIKEHVQKPEVANSLPAPPQMPLPEIPQQWLPPDNGPPPLPTSSLPEGYYEEAVPVSPGKAPEYITSNYDSDAMSSSYESYDEEEEDGKGKKMRHQWPSEEASMDLVKDAKICAFLLRKKRFGQWTKLLCVIKENKLLCYKSSKDQQPQMELLLNDCSITYIPKDSKKKKHELKISHQGADALVLAVQSKEQAEQWLKVIKDVCSNCTGTVDSDGPLSSSPVHKTELEKKLSSERPSSDGEGAVENGITTVCNGKEQVKRKKSSKTEAKGTVTKVTGKKITKIIGLGKKKPSTDEQTSSAEEDVPTCGYLNVLSNNRWRERWCRVKDNKLIFHKDRTDLKTHIVSIPLRGCEVIPGLDSKHPLTFRLLRNGQEVAVLEASSSEDMGRWIGMLLAETGSSTDPGALHYDYIDVEMTASVIQAAKQTFCFMNRRVISTNPYRGSTANGYACPSGMALHYDDVPCINGSFKGKKPPATANGITGKVRTLNSQPKKPESVSCVKRTASNAEQYKYGKNRVEAVAKRLQSKEEELLKRKEALRNRLAQLRKERKDLRAAIEVNAGRKTQVILEDKLKKLEEECKTKEAERVNLELELTEVKESLKKALAGGITLGLAIEPKSGTSSPQSPIFKHRTLENSPISSCDTSDTECSIPVNSAAALKRPPSSNNSPCRGHVLRKAKEWEMKNGT

This experiment covers variants of B1. To be noted: with src_chick SRC.
As for P71A, the “effect of a mutation on the interaction” value is on record as “decreasing interaction”.
